Data as given in the supplement of paper PMC7125110.
± gives the standard error. Fewer inactive variants are shown than the library holds.

B1: glmS ribozyme (parent)
chain: AUAAAAGCGCCAGAACUACAGAAAUGUAGUUGACGAGGAGGAGGUUUAUCGAAUUUUCGGCGGAUGCCUCCAAA

Key:
Conditions in all cases: with glucosamine-6-phosphate
[1] = variants of: B1; experiment: self-cleavage kobs at 40 uM GlcN6P; higher = faster cleavage; RNA array
Procedure, shortened: (§1)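 Tiles bearing barcoded ribozyme variants, transcribed in situ by E. coli RNA polymerase on sequenced MiSeq chips, were imaged over ~14 h at 37 °C using a hybridised Cy3 probe. Glucosamine-6-phosphate was supplied at 40 μM to 10 mM in HEPES/KCl/Mg(OAc)2 buffer. kobs came from one- or two-exponential decay fits to normalised per-tile medians, and weighted Michaelis–Menten fits then provided kcat and KM.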

[2] = variants of: B1; experiment: self-cleavage kobs at 10000 uM GlcN6P; higher = faster cleavage; RNA array
Procedure, shortened: as §1

[3] = variants of: B1; experiment: self-cleavage kobs at 160 uM GlcN6P; higher = faster cleavage; RNA array
Procedure, shortened: as §1

[4] = variants of: B1; experiment: self-cleavage kobs at 640 uM GlcN6P; higher = faster cleavage; RNA array
Procedure, shortened: as §1

[5] = variants of: B1; experiment: self-cleavage kobs at 2500 uM GlcN6P; higher = faster cleavage; RNA array
Procedure, shortened: as §1

Row | Variant | self-cleavage kobs at 40 uM GlcN6P [1] [s⁻¹] | self-cleavage kobs at 10000 uM GlcN6P [2] [s⁻¹] | self-cleavage kobs at 160 uM GlcN6P [3] [s⁻¹] | self-cleavage kobs at 640 uM GlcN6P [4] [s⁻¹] | self-cleavage kobs at 2500 uM GlcN6P [5] [s⁻¹]
1 | U55A G60A C67U | < 1e-05 |  |  |  | 
2 | A15G U55G G63A | < 1e-05 | < 1e-05 |  |  | 
3 | A12U U46C G59A | < 1e-05 | 5.26e-05 ± 1.6e-05 |  |  | 
4 | G7C G59A | < 1e-05 | < 1e-05 | < 1e-05 | < 1e-05 | 
5 | A15C U57C | < 1e-05 | 5.67e-05 ± 6.7e-06 |  |  | 
6 | C11A G38U C67G C68U | 0.000296 ± 7.3e-05 | 0.000394 ± 9.3e-05 |  |  | 
7 | G37A A42U C70A | < 1e-05 |  |  |  | 
8 | C8A C71A | < 1e-05 | < 1e-05 | < 1e-05 | < 1e-05 | < 1e-05
9 | G9A U31G C68G | < 1e-05 |  |  | < 1e-05 | 
10 | G9C C11U | < 1e-05 | < 1e-05 | < 1e-05 | < 1e-05 | < 1e-05
11 | U47G G63U | < 1e-05 | < 1e-05 | < 1e-05 | < 1e-05 | < 1e-05
12 | U30G C61G | < 1e-05 | < 1e-05 |  |  | 
13 | A6U G35A | < 1e-05 |  | < 1e-05 | < 1e-05 | 
14 | G7A G41C | < 1e-05 |  | < 1e-05 | < 1e-05 | < 1e-05
15 | G59C G66U | < 1e-05 | < 1e-05 | < 1e-05 | < 1e-05 | 
16 | A6G U31C C71U | < 1e-05 |  |  |  | 
17 | A39C U54C A64C | < 1e-05 |  |  |  | 
18 | A48U G66C | < 1e-05 |  | < 1e-05 |  | 
19 | A33U G40A A42C | < 1e-05 | < 1e-05 | < 1e-05 | < 1e-05 | < 1e-05
20 | A6U C58A G59C A64G | < 1e-05 | < 1e-05 |  |  | 
21 | G32A G35A | < 1e-05 | < 1e-05 | < 1e-05 | < 1e-05 | < 1e-05
22 | G7C A33U | < 1e-05 | < 1e-05 | < 1e-05 |  | < 1e-05
